In patent publication US20190194323A1 (ALLAKOS, published 2019):
Changes are numbered by the printed parent chain.

B1: 13D2 (antibody, V domains shown)
VH: DVQLQESGPGMVKPSQSLSLTCTVTGYSITSDYDWHWIRHFPGNKLEWMGYISYSGSTKYNPSLKSRISITHDTSKNHFFLKLNSVTAEDTATYYCARENDFPGFWYFDVWGTGTTVTVSS
VL: DIVMSQSPSSQVVSVGEKVTVTCTSSQSLLYGTNQKNYLAWYQQKPGQSPKLLIYWASIRESGVPDRFTGSGSGTDFTLTISSVKAEDLAVYYCQQYYSYPLTFGAGTKLELK
B2: 10E11 (antibody, V domains shown)
VH: EVQLQQSGPELVKPGDSVKISCKASGYSSTGYFMNWVMQSHGKSLEWIGRIIPYNGDTFYNQKFKDKATLTVDKSSNTAHLELRSLTSEDSVVYYCAGPRIGGDYDGGSWLAYWGQGTLVTVSA
VL: DIVMTQSQKFMSTTVGDRVSITCKASQNVGTAVAWYQQKPGHSPKLLIYSASNRYTGVPDRFTGSGYGTDFTLTISNMQSEDLADYFCQQYNSYPLTFGAGTKLELK
B3: 5D1 (antibody)
heavy chain variable region: QVQLQQPGAELVKPGASVKMSCKASGYTFTSSWITWVKDRPGQGLEWIGDIYPGNGNTNYNEKFKSKATLTVDTSSNTVYMQLSSLTSEDSAVHYCARDGRGYFDYWGPGTTLTVSS
light chain variable region: DIQMTQTTSSLSASLGDRVTIICRASQDISNFLNWYQQKPDGTVKLLMYDTSILQSGVPSRFSGRGSGADYSLTINNLEQEDLATYFCQQGKTLPYTFGGGTKLEIK
B4: 5G10 (antibody, V domains shown)
VH: EVKLEESGGGLVQPGGSMKVSCVASGFTFSNYWMNWVRQSPEKGLEWVAQIRLKSDNYATHYAESVKGRFTISRDDSKSSVYLQMNNLRAEDTGIYYCTEGDYDIFAYWGQGTLVTVSA
VL: DIQMTQTTSSLSASLGDRVTISCSASQGITNYLNWYQQKPDGTVKLLIYYTSILHSGVPSRFSGSGSGTDYSLTISNLEPEDIATYYCQQYSKPPYTFGGGTKLEIK
B5: monoclonal antibody 16H11 (antibody, V domains shown)
VH: QVQLHQSGAELVKPGASVKISCKGSGYDFSNFWMNWVKQRPGKGLEWIGQIYPGDGEIKYNGKFKGKATLTADESSSTAYIHLSSLTSEDSAVYFCARDDYLRAMDYWGQGTSVTVSS
VL: DIQMTQSPASLSASVGETVTITCRASGNIHNYLAWFQQKQGKSPHFLVYSAKALADGVPSRFSGSGSGTQYSLKINSLQPEDFGTYYCQHFWSSPYTFGGGTKLEIK
notes: Parental antibody; The Methods capture antibodies on anti-mouse sensors
B6: 9D4 (antibody)
heavy chain variable region: QVTLKESGPGILQPSQTLSLTCSFSGFSLSTFGMGVGWIRQPSGKGLEWLAHIWWDDDKYYHPALKSRLTISKDTSNNQVFLKIANVDTAETATFYCARVERGYPLDHWGQGTTLRVSS
light chain variable region: DIVLTQSPASLAVSLGQRATISCRASQSVSSSSYSYMHWYQQKPGQPPKLLIKYASNLKSGVPARFSGSGSGTDFTLTIHPVEEEDTATYYCQHSWEIPPTFGGGTKLEIK
B7: humanized 16H11-derived Fab, VH AK449-6 / VL AK418-2 (Fab, V domains shown)
VH: QVQLVQSGAEVKKPGSSVKVSCKGSGYDFSNFWMNWVRQAPGQGLEWMGGIYPGDGEIKYNQKFQGRVTITADESTSTAYMELSSLRSEDTAVYYCARDDYLRAMDIWGQGTMVTVSS
VL: DIQMTQSPSSLSASVGDRVTITCRASGNIHNYLAWYQQKPGKAPKFLLYSAKRLESGVPSRFSGSGSGTDYTLTISSLQPEDFATYYCQHFWSSPYTFGGGTKVEIK
notes: Measured as monovalent Fab; also called No. 30; VH449-6 and VL418-2
B8: humanized 16H11-derived Fab, VH AK465-17 / VL AK418-2 (Fab, V domains shown)
VH: B7 VH with G24A, G50Q, N61A
VL: B7 VL
notes: Measured as monovalent Fab; also called No. 39; FH465-17 and VL418-2
B9: humanized 16H11-derived Fab, VH AK463-2 / VL AK418-2 (Fab, V domains shown)
VH: B7 VH with G24A, G50Q, I107Y, M113L
VL: B7 VL
notes: Measured as monovalent Fab; also called No. 35; VH463-2 and VL418-2
B10: humanized 16H11-derived Fab, VH AK485-5 / VL AK418-2 (Fab, V domains shown)
VH: B7 VH with G24A, W33A, G50Q
VL: B7 VL
notes: Measured as monovalent Fab; also called No. 45
B11: humanized 16H11-derived Fab, VH AK485-4 / VL AK448-3 (Fab, V domains shown)
VH: B7 VH with G24A, W33A, G50Q, I107Y, M113L
VL: B7 VL with G27Q, G100Q, V104L
notes: Measured as monovalent Fab; also called No. 47
B12: humanized 16H11-derived Fab, VH AK465-17 / VL AK419-2 (Fab, V domains shown)
VH: B7 VH with G24A, G50Q, N61A
VL: B7 VL with G27Q
notes: Measured as monovalent Fab; also called No. 40
B13: humanized 16H11-derived Fab, VH AK463-2 / VL AK419-2 (Fab, V domains shown)
VH: B7 VH with G24A, G50Q, I107Y, M113L
VL: B7 VL with G27Q
notes: Measured as monovalent Fab; also called No. 38
B14: humanized 16H11-derived Fab, VH AK484-6 / VL AK448-3 (Fab, V domains shown)
VH: B7 VH with G24A, F32Y, G50Q
VL: B7 VL with G27Q, G100Q, V104L
notes: Measured as monovalent Fab; also called No. 43; VH484-6 and VL448-3
B15: humanized 16H11-derived Fab, VH AK484-7 / VL AK448-3 (Fab, V domains shown)
VH: B7 VH with G24A, F32Y, G50Q, I107Y, M113L
VL: B7 VL with G27Q, G100Q, V104L
notes: Measured as monovalent Fab; also called No. 44; VH484-7 and VL448-3
B16: humanized 16H11-derived Fab, VH AK449-6 / VL AK448-3 (Fab, V domains shown)
VH: B7 VH
VL: B7 VL with G27Q, G100Q, V104L
notes: Measured as monovalent Fab; also called No. 31
B17: humanized 16H11-derived Fab, VH AK485-5 / VL AK448-3 (Fab, V domains shown)
VH: B7 VH with G24A, W33A, G50Q
VL: B7 VL with G27Q, G100Q, V104L
notes: Measured as monovalent Fab; also called No. 46
B18: humanized 16H11-derived Fab, VH AK484-6 / VL AK418-2 (Fab, V domains shown)
VH: B7 VH with G24A, F32Y, G50Q
VL: B7 VL
notes: Measured as monovalent Fab; also called No. 42; VH484-6 and VL418-2
B19: humanized 16H11-derived Fab, VH AK463-2 / VL AK448-3 (Fab, V domains shown)
VH: B7 VH with G24A, G50Q, I107Y, M113L
VL: B7 VL with G27Q, G100Q, V104L
notes: Measured as monovalent Fab; also called No. 36; Vh463-2 and VL448-3
B20: humanized 16H11-derived Fab, VH AK465-17 / VL AK448-3 (Fab, V domains shown)
VH: B7 VH with G24A, G50Q, N61A
VL: B7 VL with G27Q, G100Q, V104L
notes: Measured as monovalent Fab; also called No. 41
B21: 2G12 (antibody, V domains shown)
VH: QVQLQQPGAELVKPGASVKLSCKASGYTFTSYWMQWVKQRPGQGLEWIGEIDPSVSYTEYNQKFKGKATLTVDTSSSTAYMQLSSLTSEDSAVYFCARWSKDYYGMDYWGQGTSVTVSS
VL: DIVLTQSHKFMSTSVGDRVTITCKASQDVSTAVAWYQQKPGQSPKLLIYWTSTRHTGVPDRFTGSGSGTDHTLTISSVQAEDLALYYCHQQYSTPPTFGGGTKLEIK
B22: monoclonal antibody 8A2 (antibody, V domains shown)
VH: QVQLKESGPGLVAPSQSLSITCTVSGFSLTTYGVDWVRQFPGKGLEWLGVIWGGGNTNYNSALMSRLSISKDTSKSQVFLKMNSLQTDDTAMYYCAKHKGTSHAMEYWGQGTSVTVSS
VL: QIVLTQSPAIMSASPGEKVTMTCSASSRVIFMYWYQQKPGSSPRLLIYDTSNLASGVPVRFSGGGSGTSYSLTISRMEAEDAATYYCQQWSSYPPTFGAGTKLELK
B23: anti-Siglec-7 antibody 4B12 (antibody, V domains shown)
VH: EVQLQQSGPELVKPGASVKIPCKASGYTFTDYNMDWVKQSHEKSLEWIGDIDPHNGVTLYNQKFKDKATLTIDKSSNTAYMELRSLTSEDSAVYYCALTGSTYWGQGTLVTVSA
VL: DIVMTQSQKFMSTSVGDRVSVTCKASQNVGTNVAWYQQKPGQSPKAVIYSASYRNSGVPDRFTGSGSGTDFTLTISNVQSEDLTEYFCQQYNNYPYTFGGGTKLEIK
notes: Used as an AF647 conjugate for detection in the internalization assay; also called 4B12-AF647

Tests used:
[1] = biological target: T1, Siglec-7-ECD (human, UniProt Q9Y286 19-353); assay: bio-layer interferometry (ForteBio): antibody captured on the sensor, Siglec-7-ECD as analyte, 1:1 global fit
T1 construct: also called p75; AIRM
Description: A panel of antibodies was evaluated for binding to Siglec-7. The results identified anti-Siglec-7 antibodies that have improved KD values compared to commercially available anti-Siglec-7 antibodies (FIG. 7).
Antibody binding analysis was carried out by bio-layer interferometry (ForteBio). […] Antibodies were captured on anti-mouse kinetic sensors at 0.5 ug/mL; Siglec-7-ECD was used as analyte and diluted in assay buffer from 50 nM to 1.56 nM with 2× dilutions. Two-minute associations were conducted, followed by 10-minute dissociations. Results were determined relative to a control empty reference AHC sensor, and analyzed using ForteBio analysis software with 1:1 global fit parameters.

[2] = biological target: T2, Siglec-7-ECD-Fc (human, UniProt Q9Y286 19-353); assay: ligand blocking on cells, flow cytometry: antibody dilutions pre-mixed with 10 nM Siglec-7-ECD-Fc, then binding of Siglec-7-ECD-Fc to Siglec-7 ligands on A375 melanoma cells
T2 construct: also called recombinant Siglec-7-Fc fusion protein; Siglec-7-Fc; not shown: human Fc (huFc)
Description: Recombinant Siglec-7-Fc was added to A375 cells in the presence of anti-Siglec-7 antibodies at increasing concentrations and binding of the complex was detected on the cell surface.
Human melanoma cell line A375, which expresses high level of ligands for Siglec-7, was used to determine the blocking activity of anti-Siglec-7 antibodies in a cell based assay. Two-fold serial dilutions of anti-Siglec-7 antibodies (40 nM to 40 pM) were combined with 10 nM Siglec-7-ECD-Fc in FACS buffer (PBS/2% BSA) and incubated on ice for 30 minutes. 2.5×10e4 A375 cells per well were added to round bottom 96-well tissue culture plates in FACS buffer, plates were centrifuged at 400 g for 2 min, supernatant was removed and cells were re-suspended in 100 ul of the antibody-Siglec-7 complexes. After a 1 hour incubation on ice, cells were washed twice and incubated for 30 minutes with goat anti-human F(ab′)₂ fragment conjugated to AF647 (Jackson IR labs) at 1 ug/ml in FACS buffer. After two more washes, cells were fixed in PBS/2% PFA and acquired on a Novocyte flow cytometer (ACEA biosciences). IC₅₀ values for blocking were determined based on plotting mean fluorescence in the APC channel and analysis using Prism Graphpad software.

[3] = biological target: Siglec-7 on primary human cells (NK cells, CD8+ tumor-infiltrating T cells) (human) (UniProt Q9Y286)
[4] = biological target: Siglec-7 on primary human cells (NK cells, CD8+ tumor-infiltrating T cells) (human, UniProt Q9Y286 19-467); assay: cell-based or functional assay
[5] = biological target: T1, Siglec-7-ECD; assay: monovalent Fab; bio-layer interferometry (ForteBio) per Methods

T1 sequence (Q9Y286 19-353 limits assumed): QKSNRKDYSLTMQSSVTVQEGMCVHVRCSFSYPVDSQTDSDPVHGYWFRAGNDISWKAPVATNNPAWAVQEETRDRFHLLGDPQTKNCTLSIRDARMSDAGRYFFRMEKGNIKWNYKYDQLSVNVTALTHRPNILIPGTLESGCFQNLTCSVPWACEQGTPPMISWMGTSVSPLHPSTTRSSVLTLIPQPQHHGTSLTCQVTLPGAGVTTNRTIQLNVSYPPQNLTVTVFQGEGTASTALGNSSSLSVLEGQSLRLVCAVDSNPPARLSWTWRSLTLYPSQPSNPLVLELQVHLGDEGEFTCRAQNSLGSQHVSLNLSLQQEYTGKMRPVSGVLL
T2 sequence (Q9Y286 19-353): as the sequence (Q9Y286 19-353 limits assumed) above
Siglec-7 on primary human cells (NK cells, CD8+ tumor-infiltrating T cells), sequence (Q9Y286 19-467 limits assumed): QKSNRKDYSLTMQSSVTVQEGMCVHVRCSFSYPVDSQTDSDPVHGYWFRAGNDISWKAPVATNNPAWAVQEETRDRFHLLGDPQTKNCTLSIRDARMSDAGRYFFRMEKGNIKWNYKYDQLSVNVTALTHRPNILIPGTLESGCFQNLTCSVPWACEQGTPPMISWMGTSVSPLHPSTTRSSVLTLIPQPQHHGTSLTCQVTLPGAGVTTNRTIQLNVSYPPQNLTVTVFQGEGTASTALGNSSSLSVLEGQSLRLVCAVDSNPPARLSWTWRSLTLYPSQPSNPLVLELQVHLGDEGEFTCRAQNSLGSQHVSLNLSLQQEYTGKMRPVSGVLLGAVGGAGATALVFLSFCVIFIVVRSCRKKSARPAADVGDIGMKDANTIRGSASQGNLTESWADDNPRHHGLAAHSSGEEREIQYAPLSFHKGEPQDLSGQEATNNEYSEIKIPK
Siglec-7 on primary human cells (NK cells, CD8+ tumor-infiltrating T cells) (human), sequence (Q9Y286 19-467 limits assumed): as above

Molecule	Kd [1] [nM]	IC50 of Siglec-7 internalization on NK cells (24 h, PBMC; remaining surface Siglec-7 stained with 4B12-AF647) [4] [nM]	Kd [5] [nM]	other results
QA79 (antibody)	0.706	–	–	IC50 [2]: 7.49 nM; IC50 of Siglec-7 internalization on NK cells (24 h, PBMC; remaining surface Siglec-7 stained with 4B12-AF647) [3]: 0.326 nM
B1	–	0.0175	–	–
B2	0.522	0.0493	–	IC50 [2]: 6.23 nM
B3	0.001	0.0206	–	–
B4	0.001	0.206	–	IC50 [2]: 3.07 nM
B5	0.035	0.0106	–	IC50 [2]: 7.42 nM
B6	0.76	0.0875	–	IC50 [2]: 1.41 nM
B7	–	–	< 0.1	–
B8	–	–	< 0.075	–
B9	–	–	< 0.075	–
B10	–	–	> 0.5	–
B11	–	–	> 0.5	–
B12	–	–	0.15 to 0.25	–
B13	–	–	> 0.5	–
B14	–	–	< 0.075	–
B15	–	–	< 0.075	–
B16	–	–	0.05 to 0.1	–
B17	–	–	> 0.5	–
B18	–	–	< 0.1	–
B19	–	–	< 0.075	–
B20	–	–	0.1 to 0.15	–
B21	0.205	0.0673	–	IC50 [2]: 19.8 nM
B22	0.001	0.0149	–	–
B23	0.26	–	–	–
